Source: patent US20220017574A1 (Janssen / Centocor, published 2022)

Columns and labels:
Experiment in all cases: sandwich ELISA: antibody coated at 1 µg/ml, purified F protein titrated (after 4 weeks at 4 °C), detection with biotinylated CR9506
[1] = target: T1, control pre-fusion F protein RSV150042 (respiratory syncytial virus subgroup A, UniProt P03420 27-109; P03420 137-513)
T1 construct: Control protein described in WO2017/174568; also called PRPM

[2] = target: T2, pre-fusion RSV F protein RSV180305 (respiratory syncytial virus subgroup A …, UniProt P12568 27-109; P03420 137-513)
T2 construct: Soluble F ectodomain; also called RSV pre-F (RSV180305)

[3] = target: T3, pre-fusion RSV F protein RSV172527 (respiratory syncytial virus subgroup A …, UniProt P12568 27-109; P03420 137-513)
T3 construct: Soluble F ectodomain
T3 chain 1: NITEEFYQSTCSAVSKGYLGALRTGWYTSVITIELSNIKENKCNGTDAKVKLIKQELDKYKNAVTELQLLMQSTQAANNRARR
T3 chain 2: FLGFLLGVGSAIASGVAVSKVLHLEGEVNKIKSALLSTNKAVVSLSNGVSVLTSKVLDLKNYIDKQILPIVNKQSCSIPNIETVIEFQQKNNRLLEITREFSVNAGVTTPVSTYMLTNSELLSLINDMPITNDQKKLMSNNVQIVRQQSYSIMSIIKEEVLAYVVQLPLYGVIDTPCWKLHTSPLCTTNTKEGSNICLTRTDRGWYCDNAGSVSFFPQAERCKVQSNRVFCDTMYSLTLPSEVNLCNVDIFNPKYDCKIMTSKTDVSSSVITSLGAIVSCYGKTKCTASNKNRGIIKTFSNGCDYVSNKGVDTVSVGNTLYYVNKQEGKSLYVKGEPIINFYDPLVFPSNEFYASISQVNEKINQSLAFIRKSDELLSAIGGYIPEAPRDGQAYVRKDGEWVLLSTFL

Measured: binding result

B1: monoclonal antibody CR9506 (antibody, human IgG1, kappa, V domains shown)
VH: EVQLVQSGAEVKKPGSSVKVSCKASGGTFSRSLITWVRQAPGQGLEWMGEISLVFGSAKNAQKFQGRVTITADESTSTAHMEMISLKHEDTAVYYCAAHQYGSGTHNNFWDESELRFDLWGQGTLVTVSS
VL: DIVMTQSPSSLSASVGDRVTIACRASQSIGTYLNWYQQKPGKAPKLLIYAASSLQSGVPSRFSGSGSGTHFTLAISSLQAEDFATYSCQQSYTIPYTFGQGTKLEIKR
notes: In the ELISA, CR9506 was coated as a capture antibody and also used biotinylated for detection; also called Mab CR9506
binds: all assays above
